Test results as given in paper PMC8748714 (2022).
Where a chain is given by its changes, count along the chain named. No end group written: not given here.

T1: GLP-1R E138A (Homo sapiens)
T1 chain: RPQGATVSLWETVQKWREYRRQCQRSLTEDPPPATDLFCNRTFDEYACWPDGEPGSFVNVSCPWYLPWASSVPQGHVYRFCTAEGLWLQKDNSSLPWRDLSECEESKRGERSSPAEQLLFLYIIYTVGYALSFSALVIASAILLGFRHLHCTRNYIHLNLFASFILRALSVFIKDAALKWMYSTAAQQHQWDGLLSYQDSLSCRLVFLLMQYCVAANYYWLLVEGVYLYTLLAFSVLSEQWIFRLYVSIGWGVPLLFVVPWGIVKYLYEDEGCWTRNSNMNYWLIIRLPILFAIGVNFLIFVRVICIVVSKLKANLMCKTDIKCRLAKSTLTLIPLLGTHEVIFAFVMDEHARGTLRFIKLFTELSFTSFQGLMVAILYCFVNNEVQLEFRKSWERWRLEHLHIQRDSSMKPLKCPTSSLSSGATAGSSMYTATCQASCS

T2: GLP-1R S206A (Homo sapiens)
T2 chain: T1 chain with A115E, S183A

T3: GLP-1R L144A (Homo sapiens)
T3 chain: T1 chain with A115E, L121A

T4: GLP-1R S193A (Homo sapiens)
T4 chain: T1 chain with A115E, S170A

T5: GLP-1R P137A (Homo sapiens)
T5 chain: T1 chain with P114A, A115E

T6: GLP-1R L201A (Homo sapiens)
T6 chain: T1 chain with A115E, L178A


Legend:
GLP-1R E138A = biological target: T1, GLP-1R E138A
GLP-1R S206A = biological target: T2, GLP-1R S206A
GLP-1R L144A = biological target: T3, GLP-1R L144A
GLP-1R S193A = biological target: T4, GLP-1R S193A
GLP-1R P137A = biological target: T5, GLP-1R P137A
GLP-1R L201A = biological target: T6, GLP-1R L201A

Binder | IC50 (GLP-1R E138A) [nM] | IC50 (GLP-1R S206A) [nM] | IC50 (GLP-1R L144A) [nM] | IC50 (GLP-1R S193A) [nM] | IC50 (GLP-1R P137A) [nM] | IC50 (GLP-1R L201A) [nM]
HAEGTFTSDVSSYLEGQAAKEFIAWLVKGR (not fully specified (C-terminus)) [glucagon-like peptide-1] | 6.92 | 4.9 | 11 | 5.01 | 40.7 | 38.9
HSQGTFTSDYSKYLDSRRAQDFVQWLMNTKRNRNNIA [oxyntomodulin] | 45.7 | 16.6 | 51.3 | 14.8 | 74.1 | 107
